Source: article doi:10.1101/207886

Target: MBP-fused Cas3 (E. coli) (UniProt P38036)
Experiment: single-molecule TIRF fluorescence

UniProt P38036, sequence (P38036 whole entry, the tested form may be a part): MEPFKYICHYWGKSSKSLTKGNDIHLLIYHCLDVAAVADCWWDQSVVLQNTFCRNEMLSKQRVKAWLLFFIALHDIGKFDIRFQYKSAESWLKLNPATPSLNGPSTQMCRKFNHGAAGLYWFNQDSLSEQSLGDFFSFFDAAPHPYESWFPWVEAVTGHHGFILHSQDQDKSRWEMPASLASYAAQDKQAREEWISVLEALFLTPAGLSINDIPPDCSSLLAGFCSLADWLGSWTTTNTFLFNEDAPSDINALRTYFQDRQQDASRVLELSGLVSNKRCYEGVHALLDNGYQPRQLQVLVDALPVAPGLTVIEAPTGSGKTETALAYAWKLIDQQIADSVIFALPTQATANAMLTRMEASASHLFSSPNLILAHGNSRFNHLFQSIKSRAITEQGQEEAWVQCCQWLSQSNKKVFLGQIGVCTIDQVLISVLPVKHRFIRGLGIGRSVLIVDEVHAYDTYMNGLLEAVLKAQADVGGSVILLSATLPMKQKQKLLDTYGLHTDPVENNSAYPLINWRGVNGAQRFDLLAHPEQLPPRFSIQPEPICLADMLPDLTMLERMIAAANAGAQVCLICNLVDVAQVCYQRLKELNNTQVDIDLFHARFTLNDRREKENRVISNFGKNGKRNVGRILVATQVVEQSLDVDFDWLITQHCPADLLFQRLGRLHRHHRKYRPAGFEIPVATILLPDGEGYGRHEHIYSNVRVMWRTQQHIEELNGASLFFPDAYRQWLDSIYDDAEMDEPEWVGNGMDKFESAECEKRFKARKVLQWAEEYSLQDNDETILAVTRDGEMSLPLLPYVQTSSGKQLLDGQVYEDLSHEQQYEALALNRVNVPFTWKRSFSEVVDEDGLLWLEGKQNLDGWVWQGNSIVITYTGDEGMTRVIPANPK

dwell-time: 1.63 s
Substance: Cascade complex (RNA-guided surveillance complex), bound to dye-labelled target DNA (from UniProt Q46901 1-502)
